According to patent US20230303623A1, “PEPTIDES AND METHODS OF USE” (REALTA LIFE SCIENCES, INC., priority 2020, published 2023):
Entries after “also recorded” stand apart in the source; their conditions may differ.

Biological target: T1, CTLA-4 (Homo sapiens, UniProt P16410)
T1 sequence (P16410 36-223): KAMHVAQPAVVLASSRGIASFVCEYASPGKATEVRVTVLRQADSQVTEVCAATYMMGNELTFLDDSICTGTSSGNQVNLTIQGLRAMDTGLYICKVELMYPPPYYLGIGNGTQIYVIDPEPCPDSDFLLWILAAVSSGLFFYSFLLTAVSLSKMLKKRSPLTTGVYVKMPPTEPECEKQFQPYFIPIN
Assay: CTLA-4 Blockade Bioassay (Promega)
Type: cell-based
Parameters: host or cells: Jurkat T cells (CTLA-4 effector cells) co-cultured with aAPC/Raji cells
Settings: increasing concentrations; listed as RLS-0122
Method: CTLA-4 effector cells were incubated with aAPC/Raji Cells in the absence or presence of increasing concentrations of anti-CTLA-4 antibody (positive control), RLS-0122, RLS-0150, RLS-0154, RLS-0164 and RLS-0168 and RLS-0088 (negative control). Luminescence was detected in luminometer plate reader. The drop-off in signal with the test peptides at high concentrations is due to cell death as a result of peptide buffer effects on the cells.
To assess if PIC1 peptides could block CTLA-4 inhibitory activity in a cell-based assay, select peptides were screened in the CTLA-4 Blockade Bioassay (Promega). This bioluminescent cell-based assay can be used to measure the potency and stability of molecules targeting CTLA-4 and consists of two genetically engineered cell lines: CTLA-4 effector cells: Jurkat T cells expressing human CTLA-4 and a luciferase reporter driven by a native promoter which responds to TCR/CD28 activation and aAPC/Raji Cells: Raji cells expressing an engineered cell surface protein designed to activate cognate TCRs in an antigen-independent manner and endogenously expressing CTLA-4 ligands CD80 and CD86. When the two cell types are co-cultured, CTLA-4 competes with CD28 for their shared ligands, CD80 and CD86 and thus inhibits CD28 pathway activation and promoter-mediated luminescence. Addition of a molecule that blocks the interaction of CTLA-4 with its ligands CD80 and CD86 results in promoter-mediated luminescence.

Substance: IAdLILEP(Sar)CCQERAA (IALILEPXCCQERAA; D-Leu; sarcosine; MOD_RES (3)..(3) D-amino acid; MOD_RES (8)..(8) Sarcosine) [PA-0122]
- inhibition of CTLA-4 mediated cell signaling (increase in luminescence), in words: showed inhibitory activity; also recorded: able to inhibit CTLA-4 mediated cell signaling
